According to patent US20140038892A1:

Target: FGFR3-IIIc (UniProt P22607)
Experiment: cell-based or functional assay

Sequence of FGFR3-IIIc (P22607 23-806): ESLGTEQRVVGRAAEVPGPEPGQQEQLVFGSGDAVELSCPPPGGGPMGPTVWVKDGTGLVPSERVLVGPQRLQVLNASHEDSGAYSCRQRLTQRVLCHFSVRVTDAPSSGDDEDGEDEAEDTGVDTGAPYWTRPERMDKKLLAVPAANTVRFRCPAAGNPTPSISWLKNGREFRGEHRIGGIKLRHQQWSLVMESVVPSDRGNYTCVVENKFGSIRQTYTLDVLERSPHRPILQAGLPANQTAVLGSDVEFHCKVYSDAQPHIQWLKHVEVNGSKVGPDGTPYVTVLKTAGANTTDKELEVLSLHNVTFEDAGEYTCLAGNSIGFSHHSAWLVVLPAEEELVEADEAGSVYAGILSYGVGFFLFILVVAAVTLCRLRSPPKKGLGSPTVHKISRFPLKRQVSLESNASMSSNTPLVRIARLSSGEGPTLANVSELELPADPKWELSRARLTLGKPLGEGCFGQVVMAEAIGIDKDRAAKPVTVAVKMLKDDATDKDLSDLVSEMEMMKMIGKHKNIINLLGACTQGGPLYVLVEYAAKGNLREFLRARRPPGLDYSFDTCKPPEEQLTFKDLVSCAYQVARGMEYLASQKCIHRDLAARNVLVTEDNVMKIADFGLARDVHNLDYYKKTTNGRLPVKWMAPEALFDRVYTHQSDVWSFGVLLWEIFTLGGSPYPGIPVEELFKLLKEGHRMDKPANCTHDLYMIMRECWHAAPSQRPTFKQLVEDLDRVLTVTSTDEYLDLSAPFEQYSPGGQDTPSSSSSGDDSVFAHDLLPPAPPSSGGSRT
Sequence of FGF-18 delta33 (O76093 other isoform, or with tags, fused parts or gaps mutant limits assumed): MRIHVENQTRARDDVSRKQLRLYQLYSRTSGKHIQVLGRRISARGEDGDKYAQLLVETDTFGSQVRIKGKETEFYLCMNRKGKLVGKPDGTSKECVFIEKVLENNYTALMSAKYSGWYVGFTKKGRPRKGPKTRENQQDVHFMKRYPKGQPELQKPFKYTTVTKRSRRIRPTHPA
Sequence of FGF18 - HA (234 Kd) conjugate (O76093 28-207 limits assumed): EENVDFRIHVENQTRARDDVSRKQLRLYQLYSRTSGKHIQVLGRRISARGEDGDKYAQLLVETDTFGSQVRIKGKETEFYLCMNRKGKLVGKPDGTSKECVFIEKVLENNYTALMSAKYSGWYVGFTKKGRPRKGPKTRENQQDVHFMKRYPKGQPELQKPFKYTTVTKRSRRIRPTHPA
Sequence of FGF18 w.t. (O76093 28-207 limits assumed): as above
Sequence of FGF18 Δ51 - HA (234 Kd) conjugate (O76093 52-207, tags or fused parts left off): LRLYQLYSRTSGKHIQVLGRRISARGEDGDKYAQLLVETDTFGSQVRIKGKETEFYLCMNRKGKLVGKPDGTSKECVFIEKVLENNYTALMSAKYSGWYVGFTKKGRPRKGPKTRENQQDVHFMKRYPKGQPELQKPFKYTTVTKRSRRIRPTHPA
Sequence of FGF18 Δ33 - HA (234 Kd) conjugate (O76093 34-207, tags or fused parts left off): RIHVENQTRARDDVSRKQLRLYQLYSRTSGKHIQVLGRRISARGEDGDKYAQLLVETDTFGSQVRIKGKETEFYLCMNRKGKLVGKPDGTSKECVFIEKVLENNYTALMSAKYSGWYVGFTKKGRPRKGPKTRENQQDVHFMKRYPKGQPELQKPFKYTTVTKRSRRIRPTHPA
Sequence of FGF-18 delta51 (O76093 other isoform, or with tags, fused parts or gaps mutant limits assumed): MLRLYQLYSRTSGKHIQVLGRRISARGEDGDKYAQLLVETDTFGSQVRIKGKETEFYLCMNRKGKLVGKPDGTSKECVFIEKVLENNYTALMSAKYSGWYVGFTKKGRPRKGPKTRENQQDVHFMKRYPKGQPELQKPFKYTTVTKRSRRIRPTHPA

| Mitogenic activity in FDCP cell lines assay, Conjugates EC50, +Hyaluronidase [ng/mL] | Mitogenic activity in FDCP cell lines assay, Conjugates EC50, -Hyaluronidase [ng/mL] | Mitogenic activity FDCP-R3 (EC50) [ng/mL] | Substance | also measured |
| --- | --- | --- | --- | --- |
| < 5 | < 5 | – | FGF2 conjugate with HA-hyd (40% hydrazido groups) - SMPH (from UniProt P09038 134-288) (ligand) | – |
| – | – | – | FGF18 w.t. (from UniProt O76093 28-207) (ligand) | Mitogenic activity, FGFR-transfected FDCP cell lines assay (EC50): 5 ng/mL |
| < 5 | > 20 | – | FGF2 conjugate with HA-hyd (10% hydrazido groups) - GMBS (from UniProt P09038 134-288) (ligand) | – |
| – | – | – | FGF-18 delta51 (from UniProt O76093 52-207) (ligand) | Mitogenic activity, FGFR-transfected FDCP cell lines assay (EC50): 5.5 ng/mL |
| – | – | < 3 | FGF2 - CMC (90 Kd) conjugate (from UniProt P09038 134-288) (ligand) | – |
| – | – | < 5 | FGF2 - HA (132 Kd) conjugate (from UniProt P09038 134-288) (ligand) | – |
| – | – | < 5 | FGF2 - HA (234 Kd) conjugate (from UniProt P09038 134-288) (ligand) | – |
| – | – | < 3 | FGF2 - HA (17 Kd) conjugate (from UniProt P09038 134-288) (ligand) | – |
| – | – | < 12.5 | FGF18 Δ51 - HA (234 Kd) conjugate (from UniProt O76093 52-207) (ligand) | – |
| – | – | < 5 | FGF2 - HA (74 Kd) conjugate (from UniProt P09038 134-288) (ligand) | – |
| – | – | < 3 | FGF2 - CMC (250 Kd) conjugate (from UniProt P09038 134-288) (ligand) | – |
| – | – | < 10 | FGF18 - HA (234 Kd) conjugate (from UniProt O76093 28-207) (ligand) | – |
| > 15 | > 15 | – | FGF2 conjugate with HA-hyd (40% hydrazido groups) - BMPS (from UniProt P09038 134-288) (ligand) | – |
| < 5 | > 40 | – | FGF2 conjugate with HA-hyd (10% hydrazido groups) - EMCS (from UniProt P09038 134-288) (ligand) | – |
| – | – | – | FGF-18 delta33 (from UniProt O76093 34-207) (ligand) | Mitogenic activity, FGFR-transfected FDCP cell lines assay (EC50): 3.5 ng/mL |
| – | – | < 6.8 | FGF18 Δ33 - HA (234 Kd) conjugate (from UniProt O76093 34-207) (ligand) | – |
| – | – | – | FGF2 (from UniProt P09038 134-288) (ligand) | Mitogenic activity in FDCP cell lines assay (EC50): 1 ng/mL; Mitogenic activity, FGFR-transfected FDCP cell lines assay (EC50): 1 ng/mL |
| < 5 | > 10 | – | FGF2 conjugate with HA-hyd (10% hydrazido groups) - SMPH (from UniProt P09038 134-288) (ligand) | – |
| < 5 | > 20 | – | FGF2 conjugate with HA-hyd (10% hydrazido groups) - BMPS (from UniProt P09038 134-288) (ligand) | – |
